What all share (assay type): physicochemical
Series [1] in a line: Stability of PTH in coating on flood-coated microneedle arrays stored at 40° C./96% RH (HPLC). As to conditions: PTH 10 mg/mL in PBS. How it is done: (§1) The protein or polypeptide content in the formulation coated on the microneedle arrays was determined using an Agilent 1100 HPLC system (Agilent Technologies, Wilmington, Del.) equipped with a binary pump, well-plated thermostated autosampler, thermostated column compartment, and a diode array UV detector. A Zorbax 300SB-C8 column (Agilent Technologies, Wilmington, Del.) having a 5 μm particle size and 2.1×150 mm inner diameter was used for the separations. The column was maintained at 50° C. The mobile phase consisted of two eluents. Eluent A was 0.1% TFA (trifluoroacetic acid) in water and eluent B was 0.1% TFA in acetonitrile (Spectrum Chemical, New Brunswick, N.J.). A linear gradient from 80/20 to 50/50 (A/B) was applied over 30 minutes. The flow rate was 0.4 mL/minute and the UV detection wavelength was set at 214 nm. The total run time was 34 minutes and the sample injection volume was 15 μL.
(§2) Microneedle arrays were coated with either the sample or the control formulation. The coating was applied by dropwise addition of 50 μL of the formulation to the portion of the array defined by the octagon shaped pattern of microneedles. The flood coated arrays (both sample and control formulation coated) were dried in an oven at 35° C. for about 15 hours.
After drying, the coated arrays were placed in a storage chamber that was maintained at 40° C. and 96% relative humidity (RH). […] The arrays used as reference standards were stored in a refrigerator at about 4° C. and analyzed within one day of being prepared.

Series [2] is described as follows: Stability of salmon calcitonin in coating on flood-coated microneedle arrays stored at 40° C./96% RH (HPLC). The settings on record: salmon calcitonin 5 mg/mL in PBS. How it is done:
as §1
as §2, with “A sample formulation containing 5 mg/mL of salmon calcitonin and 12 mg/mL of L-histidine monohydrochloride (His-HCl) in PBS was prepared. The pH of the sample formulation was 5.5. A control formulation was also prepared containing 5 mg/mL of salmon calcitonin in PBS. […] The pH of the control formulation was 6.0-6.5. Microneedle” for “Microneedle”
(§3) After drying, the coated arrays were placed in a storage chamber that was maintained at 40° C. and 96% relative humidity (RH). The salmon calcitonin content of the coated arrays was determined following storage in the chamber for 1, 3, 7, and 14 days. At the designated time point, an array was taken from the chamber and washed with PBS (1 mL) to remove the coating from the array. An aliquot of the resulting wash solution was analyzed for salmon calcitonin content using the HPLC method described above. Reference standards were prepared by measuring the initial salmon calcitonin content of freshly coated arrays (both sample and control formulation coated). The arrays used as reference standards were stored in a refrigerator at about 4° C. and analyzed within one day of being prepared. The percentage of undegraded salmon calcitonin remaining in the coating at each time point was determined by measuring the peak area for salmon calcitonin in the selected coating and dividing it by the peak area measured for salmon calcitonin in the corresponding reference standard.
The same procedure as described in Example 3 was used with the exception that the sample formulation contained 12 mg/mL of L-arginine hydrochloride, instead of L-histidine monohydrochloride. The pH of the sample formulation was 6.0-6.5.

Series [3] is described as follows: Stability of lysozyme in coating on flood-coated microneedle arrays stored at 40° C./96% RH (HPLC). As to conditions: lysozyme 10 mg/mL in PBS. How it is done:
as §1
as §2, with “A sample formulation containing 10 mg/mL of lysozyme and 12 mg/mL of L-histidine monohydrochloride (His-HCl) in PBS was prepared. The pH of the sample formulation was 5.5-6.0. A control formulation was also prepared containing 10 mg/mL of lysozyme in PBS. […] The pH of the control formulation was 6.5. Microneedle” for “Microneedle”
as §3, with “lysozyme” for “salmon calcitonin”, “(2” for “(1”, “lysozyme” for “initial salmon calcitonin”
The same procedure as described in Example 7 was used with the exception that the sample formulation contained 12 mg/mL of L-arginine hydrochloride, instead of L-histidine monohydrochloride. The pH of the sample formulation was 6.5.

Where [4] appears, read: Amino Acid L-Arginine (Arg-HCl 12 mg/mL), Day 1 at 40° C./96% RH.
Setting [5] is: Amino Acid L-Arginine (Arg-HCl 12 mg/mL), Day 3 at 40° C./96% RH.
Where [6] appears, read: Amino Acid L-Arginine (Arg-HCl 12 mg/mL), Day 7 at 40° C./96% RH.
Setting [7] is: Amino Acid L-Arginine (Arg-HCl 12 mg/mL), Day 14 at 40° C./96% RH.
[8] abbreviates: Amino Acid L-Arginine (Arg-HCl 12 mg/mL), Initial.
Where [9] appears, read: Amino Acid L-Histidine (His-HCl 12 mg/mL), Day 1 at 40° C./96% RH.
[10] abbreviates: Amino Acid L-Histidine (His-HCl 12 mg/mL), Day 3 at 40° C./96% RH.
[11] abbreviates: Amino Acid L-Histidine (His-HCl 12 mg/mL), Day 7 at 40° C./96% RH.
[12] abbreviates: Amino Acid L-Histidine (His-HCl 12 mg/mL), Initial.
Setting [13] is: Amino Acid None (control), Day 1 at 40° C./96% RH.
The mark [14] stands for this setting: Amino Acid None (control), Day 3 at 40° C./96% RH.
Setting [15] is: Amino Acid None (control), Day 7 at 40° C./96% RH.
Setting [16] is: Amino Acid None (control), Day 14 at 40° C./96% RH.
The mark [17] stands for this setting: Amino Acid None (control), Initial.
[18] abbreviates: Amino Acid L-Histidine (His-HCl 12 mg/mL), Day 14 at 40° C./96% RH.

With “parathyroid hormone (1-34) (human) [PTH]”, the “Percent of Initial PTH Content in the Coating” value (“Percent of Initial PTH Content” for short) in series [1] (setting [4]) was determined as 3.5%; in series [1] (setting [5]), 0.8%; in series [1] (setting [6]), 0.4%; in series [1] (setting [7]) it was 0%; in series [1] (setting [8]), 100%; in series [1] (setting [9]), 85.2%. Moreover, the “Percent of Initial PTH Content” value in series [1] (setting [10]) was found to be 60.3%; in series [1] (setting [11]) it was 23.1%; in series [1] (setting [12]) it was 100%; in series [1] (setting [13]) it was 1.3%; in series [1] (setting [14]), 0%; in series [1] (setting [15]), 0%. Further, the “Percent of Initial PTH Content” value is 0% in series [1] (setting [16]) and 100% in series [1] (setting [17]).
With Salmon calcitonin, the “Percent of Initial Salmon Calcitonin Content in the Coating” value worked out at 5.8% in series [2] (setting [4]); 0.3% in series [2] (setting [5]); 0% in series [2] (setting [6]); 0% in series [2] (setting [7]); 100% in series [2] (setting [8]); 30.3% in series [2] (setting [9]). For the same substance, the “Percent of Initial Salmon Calcitonin Content in the Coating” value in series [2] (setting [10]) is on record as 31.7%; in series [2] (setting [11]) it was 7.5%; in series [2] (setting [18]) it was 2.7%; in series [2] (setting [12]), 100%; in series [2] (setting [13]), 21.5%; in series [2] (setting [14]), 0.9%. For the same substance, the “Percent of Initial Salmon Calcitonin Content in the Coating” value in series [2] (setting [15]) was 0.1%; in series [2] (setting [16]), 0%; in series [2] (setting [17]), 100%.
With lysozyme, the “Percent of Initial Lysozyme Content in the Coating” value (“Percent of Initial Lysozyme Content” for short) in series [3] (setting [4]) is listed as 52.6%; in series [3] (setting [5]) it was 33.1%; in series [3] (setting [6]) it was 22.4%; in series [3] (setting [7]) it was 23.0%; in series [3] (setting [8]) it was 100%; in series [3] (setting [9]), 100.0%. In addition, the “Percent of Initial Lysozyme Content” value in series [3] (setting [10]) is 80.6%; in series [3] (setting [11]), 60.1%; in series [3] (setting [18]) it was 53.3%; in series [3] (setting [12]) it was 100%; in series [3] (setting [13]), 26.9%; in series [3] (setting [14]) it was 4.4%. Besides, the “Percent of Initial Lysozyme Content” value in series [3] (setting [15]) came out at 1.9%; in series [3] (setting [16]), 1.9%; in series [3] (setting [17]) it was 100%.

The values are drawn from patent US10154957B2, “Microneedle device having a peptide therapeutic agent and an amino acid and methods of making and using the same” (3M INNOVATIVE PROPERTIES COMPANY, priority 2011, dated 2018).
